# IntAct's records for PubMed 36638908
# B1: Eukaryotic translation initiation factor 4E1 (Drosophila melanogaster (Fruit fly)), P48598 (parent)
# chain: MQSDFHRMKNFANPKSMFKTSAPSTEQGRPEPPTSAAAPAEAKDVKPKEDPQETGEPAGNTATTTAPAGDDAVRTEHLYKHPLMNVWTLWYLENDRSKSWEDMQNEITSFDTVEDFWSLYNHIKPPSEIKLGSDYSLFKKNIRPMWEDAANKQGGRWVITLNKSSKTDLDNLWLDVLLCLIGEAFDHSDQICGAVINIRGKSNKISIWTADGNNEEAALEIGHKLRDALRLGRNNSLQYQLHKDTMVKQGSNVKSIYTL
# partner: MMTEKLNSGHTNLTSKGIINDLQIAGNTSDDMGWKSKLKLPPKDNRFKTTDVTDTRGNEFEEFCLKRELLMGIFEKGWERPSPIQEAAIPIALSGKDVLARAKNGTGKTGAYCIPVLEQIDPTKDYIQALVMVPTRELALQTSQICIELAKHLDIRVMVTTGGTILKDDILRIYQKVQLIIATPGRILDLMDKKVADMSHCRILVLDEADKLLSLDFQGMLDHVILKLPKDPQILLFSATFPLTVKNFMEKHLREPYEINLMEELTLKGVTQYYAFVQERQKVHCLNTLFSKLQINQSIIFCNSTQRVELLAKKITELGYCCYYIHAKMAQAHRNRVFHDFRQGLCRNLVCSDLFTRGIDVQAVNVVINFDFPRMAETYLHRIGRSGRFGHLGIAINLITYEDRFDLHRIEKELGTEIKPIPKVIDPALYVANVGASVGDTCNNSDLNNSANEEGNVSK
# Variants of: B1
# Conditions: with ddx6_drome me31B
row,Variant,effect of a mutation on the interaction
1,W117A,disrupting interaction strength
